In paper PMC3706390:

Molecular target: L30 (ribosomal protein L30) wild-type (rat) (UniProt P62890)
Assay: EMSA
Settings: 30 mM Tris-HCl pH 8.0, 75 mM KCl, 5 mM MgCl2, 1 mM DTT, 0.04 ug/uL BSA, 10% glycerol, 50 ng/uL yeast tRNA, 30 C 15 min; EMSA gels 0.5X TBE at 4 C; RNase …

PHGPx SECIS 102 nt (REMSA) was tested, and the Kd was 490 nM.
